# ± gives the uncertainty stated by the source.
# Test: self-splicing fitness, log relative to wild type (ln ratio); higher = more splicing; Tetrahymena group I intron in knt gene, E. coli kanamycin selection, DiMSum; sequences stand for … in CUCUCU…GGAGGGAAAAGUUAUCAGGCAUGCACCUGGUAGCUAGUCUUUAAACCAAUAGAUUGCAUCGGUUUAAAAGGCAAGACCGUCAAAUUGCGGGAAAGGGGUCAACAGCCGUUCAGUACCAAGUCUCAGGGGAAACUUUGAGAUGGCCUUGCAAAGGGUAUGGUAAUAAGCUGACGGACAUGGUCCUAACCACGCAGCCAAGUCCUAAGUCAACAGAUCUUCUGUUGAUAUGGAUGCAGUUCACAGACUAAAUGUCGGUCGGGGAAGAUGUAUUCUUCUCAUAAGAUAUAGUCGGACCUCUCCUUAAUGGGAGCUAGCGGAUGAAGUGAUGCAACACUGGAGCCGCUGGGAACUAAUUUGUAUGCGAAAGUAUAUUGAUUAGUUUUGGAGUACUCGUGGUCG
# Outline: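 A randomised library covering all eight P1ex-region intron nucleotides was built with the intron in the knt kanamycin-resistance gene on pET-22b(+) and held in E. coli BL21(DE3). Cells were grown overnight at 37°C or 30°C on LB agar, with or without 25 μg/mL kanamycin, plus 100 μg/mL carbenicillin, 50 μM IPTG and 0.2% rhamnose, and pooled colonies were amplicon-sequenced on an Illumina HiSeq 2500. DiMSum fitness is the error-weighted combination of wild-type-normalised replicate fold changes, kanamycin versus none.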
Sequence,self-splicing fitness (ln) (30 °C),self-splicing fitness (ln) (37 °C)
CAGCAGCAAUAUUACGGCUU,-0.00706 ± 0.07,0.453 ± 0.088
UCAGAGCAAUAUUACGAGUG,-2.93 ± 0.29,-0.458 ± 0.17
AUCGAGCAAUAUUACGAGCG,-2.35 ± 0.33,-1.81 ± 0.27
ACCAAGCAAUAUUACGAUUA,-2.23 ± 0.11,-1.03 ± 0.085
GUUGAGCAAUAUUACGGUGG,-2.81 ± 0.33,-2.81 ± 0.48
AUAUAGCAAUAUUACGUAGG,-3.06 ± 0.21,-0.744 ± 0.16
AUUCAGCAAUAUUACGACAG,-2.39 ± 0.16,-0.849 ± 0.17
CCGAAGCAAUAUUACGUAGC,-3 ± 0.33,–
CGGCAGCAAUAUUACGUGUC,-3.89 ± 0.31,-2.6 ± 0.2
GCCAAGCAAUAUUACGUUCA,-2.12 ± 0.11,-0.947 ± 0.12
GUGCAGCAAUAUUACGCGCA,-2.62 ± 0.27,–
GCUGAGCAAUAUUACGGUUG,-3.64 ± 0.31,-2.67 ± 0.35
CCUCAGCAAUAUUACGUGUC,-3.35 ± 0.13,-2.48 ± 0.2
GCAGAGCAAUAUUACGGGCC,–,-0.867 ± 0.3
UUUUAGCAAUAUUACGGUUA,-1.54 ± 0.2,0.105 ± 0.13
UAAGAGCAAUAUUACGCGAU,-3.86 ± 0.26,-2.56 ± 0.24
CGAUAGCAAUAUUACGGGGC,-3.2 ± 0.35,-2.56 ± 0.39
GUACAGCAAUAUUACGCGAU,-4.98 ± 0.46,-2.71 ± 0.26
CAUCAGCAAUAUUACGUGAA,-0.729 ± 0.055,-0.211 ± 0.09
UCAUAGCAAUAUUACGAGGU,-2.98 ± 0.24,-3.42 ± 0.32
CUAUAGCAAUAUUACGUUUG,-1.38 ± 0.084,-1.11 ± 0.11
CUUCAGCAAUAUUACGAUUC,-2.88 ± 0.21,-1.85 ± 0.16
GACCAGCAAUAUUACGAACA,-0.472 ± 0.091,0.313 ± 0.081
UAAAAGCAAUAUUACGCGUG,-0.88 ± 0.049,-0.0179 ± 0.066
UGAUAGCAAUAUUACGUGGG,-2.86 ± 0.17,-0.621 ± 0.11
CAACAGCAAUAUUACGCCUG,-1.23 ± 0.088,-0.914 ± 0.11

Sequence,self-splicing fitness (ln) (30 °C),self-splicing fitness (ln) (37 °C)
AGUAAGCAAUAUUACGUACC,-0.632 ± 0.16,0.366 ± 0.21
AAUUAGCAAUAUUACGAGAC,–,-2.39 ± 0.39
UUUGAGCAAUAUUACGAAAG,–,-2.49 ± 0.23
AAACAGCAAUAUUACGUGUU,-4.29 ± 0.15,-2.24 ± 0.11
UACAAGCAAUAUUACGAAUC,-3.62 ± 0.17,-2.7 ± 0.22
AAUAAGCAAUAUUACGACCG,-0.621 ± 0.12,0.329 ± 0.16
CCGCAGCAAUAUUACGGUUU,-3.45 ± 0.14,-2.86 ± 0.16
UUCAAGCAAUAUUACGUCGA,-0.383 ± 0.078,-0.0975 ± 0.087
GCAGAGCAAUAUUACGUCCA,-2 ± 0.25,-2.98 ± 0.4
CCCCAGCAAUAUUACGUUAC,-4.86 ± 0.46,-2.37 ± 0.28
UCUAAGCAAUAUUACGGCUU,-4.01 ± 0.37,-1.22 ± 0.26
ACAAAGCAAUAUUACGACGU,0.0672 ± 0.047,0.266 ± 0.06
CCACAGCAAUAUUACGCUAG,-3.27 ± 0.12,-1.36 ± 0.1
AUGCAGCAAUAUUACGCAAA,-2.6 ± 0.13,-0.0469 ± 0.14
UCUGAGCAAUAUUACGAACG,-2.04 ± 0.34,-1.65 ± 0.38
AGCUAGCAAUAUUACGAACU,-0.899 ± 0.12,0.179 ± 0.16
AAAAAGCAAUAUUACGUGAC,-2.84 ± 0.14,-2.31 ± 0.17
CACGAGCAAUAUUACGACCG,-0.0895 ± 0.089,0.125 ± 0.12
GUGAAGCAAUAUUACGAGAU,-2.25 ± 0.16,-0.51 ± 0.19
AAGCAGCAAUAUUACGGAUU,-0.723 ± 0.055,-0.000157 ± 0.077
GAGCAGCAAUAUUACGUUUU,-2.63 ± 0.092,-2.3 ± 0.12
GCGUAGCAAUAUUACGCUCG,-3.75 ± 0.32,-1.08 ± 0.2
AUGCAGCAAUAUUACGACUA,-0.708 ± 0.12,-0.187 ± 0.11
GAUAAGCAAUAUUACGAUAG,-1.66 ± 0.15,-1.95 ± 0.2
UUAGAGCAAUAUUACGGAGU,-4.12 ± 0.39,-2.9 ± 0.32
AAGGAGCAAUAUUACGCUCU,-3.15 ± 0.18,-3.85 ± 0.42

Sequence,self-splicing fitness (ln) (30 °C),self-splicing fitness (ln) (37 °C)
UUAAAGCAAUAUUACGUUAU,-2.14 ± 0.092,-1.23 ± 0.11
CCGAAGCAAUAUUACGAGCU,-3.83 ± 0.27,-2.47 ± 0.19
AUACAGCAAUAUUACGCGAG,-2.35 ± 0.097,-0.829 ± 0.1
CAAGAGCAAUAUUACGCCGA,-2.4 ± 0.23,-1.04 ± 0.32
ACGCAGCAAUAUUACGGAUG,-3.06 ± 0.15,-1.67 ± 0.14
ACGCAGCAAUAUUACGGUCU,-0.587 ± 0.049,0.0141 ± 0.056
AGAGAGCAAUAUUACGCAAC,–,-1.44 ± 0.2
CUGCAGCAAUAUUACGGGUC,-3.51 ± 0.23,-3.07 ± 0.31
GGCGAGCAAUAUUACGUACG,-2.43 ± 0.18,-1.35 ± 0.22
UUAGAGCAAUAUUACGCGUG,-0.924 ± 0.086,0.00533 ± 0.11
AUUCAGCAAUAUUACGGACU,0.0759 ± 0.063,0.414 ± 0.083
UGUCAGCAAUAUUACGGCUU,-0.428 ± 0.12,-0.319 ± 0.17
AUACAGCAAUAUUACGGAUU,-1.82 ± 0.079,-1.24 ± 0.088
CAAGAGCAAUAUUACGAUCC,-2.49 ± 0.42,-2.15 ± 0.5
UGAAAGCAAUAUUACGGGCC,-3.48 ± 0.23,-1.32 ± 0.22
CGCCAGCAAUAUUACGGAAC,-2.64 ± 0.23,-1.52 ± 0.24
GACCAGCAAUAUUACGAGUU,-3.35 ± 0.1,-1.5 ± 0.096
AUAUAGCAAUAUUACGAUCC,-0.6 ± 0.16,-0.578 ± 0.28
CGGGAGCAAUAUUACGCGGC,-2.4 ± 0.43,-1.77 ± 0.3
CUAAAGCAAUAUUACGUAGU,-4.53 ± 0.2,-2.59 ± 0.17
UUUAAGCAAUAUUACGAUAG,-0.412 ± 0.096,-0.23 ± 0.097
AUAGAGCAAUAUUACGCAAU,-0.971 ± 0.14,0.283 ± 0.2
GCUCAGCAAUAUUACGAGUA,-0.337 ± 0.098,-0.433 ± 0.1
AGGGAGCAAUAUUACGUCUC,-1.79 ± 0.32,-2.54 ± 0.48
UUUUAGCAAUAUUACGUCAG,-3.93 ± 0.47,-0.297 ± 0.27
GCAAAGCAAUAUUACGCUAG,-2.78 ± 0.088,-2.51 ± 0.084

# From the supplement of paper PMC7877785
